From patent publication US20170212130A1

Tests used:
[1] = target: GFP-His6 (eGFP) (Aequorea victoria) [GFP: P42212]; assay: label under gel lane; legend: in vitro Kd for GFP by SPR; the asterisk is not explained on the sheet
[2] = target: S. cerevisiae Nup84-GFP (S. cerevisiae) (UniProt P52891); assay: time course of Nup84-GFP isolation from yeast with dimer-conjugated magnetic beads, Coomassie band quantification

Substance	Kd [1] [nM]	relative yield of affinity isolation, percent of maximum, after 5 minutes [2] [%]	relative yield of affinity isolation, percent of maximum, after 10 minutes [2] [%]
GFP-Trap nanobody (ChromoTek GmbH) (VHH)	0.23		
LaG16-LaG2 fusion with a flexible glycine-rich linker (G4S)		80	90
